Assay results published in patent publication US20260327304 (published 2026).

B1: huB1G5-ScFv-2VHH (CD3 arm) (antibody)
chain: EVQLVESGGGLVQPGGSLKLSCAASGFTFSTYAMNWVRQAPGKGLEWVGRIRSKYNNYATYYADSVKDRFTISRDDSKNTLYLQMNSLKTEDTAVYYCTRHGNFGNSYVSWFAYWGQGTTVTVSSGGGGSGGGGSGGGGSQAVVTQEPSLTVSPGGTVTLTCRSSTGAVTTSNYANWVQQKPGQAPRGLIGGTNKRAPGVPARFSGSLLGGKAALTLSGAQPEDEAEYFCALWYSNLWVFGGGTKLTVLG
B2: huB1G5-ScFv-2VHH (CD3 arm) (antibody)
chain: EVQLVESGGGLVQPGGSLKLSCAASGFTFSTYAMNWVRQAPGKGLEWVGRIRSKYNNYATYYADSVKDRFTISRDDSKNTLYLQMNSLKTEDTAVYYCTRHGNFGNSYVSWFAYWGQGTTVTVSSGGGGSGGGGSGGGGSQAVVTQEPSLTVSPGGTVTLTCRSSTGAVTTSNYANWVQQKPGQAPRGLIGGTNKRAPGVPARFSGSLLGGKAALTLSGAQPEDEAEYFCALWYSNLWVFGGGTKLTVLG
modifications: ACRO CDD-C52W4
B3: huB1G5-CD3Fab (CD3 arm) (antibody, V domains shown)
VH: EVQLVESGGGLVQPGGSLKLSCAASGFTFSTYAMNWVRQAPGKGLEWVGRIRSKYNNYATYYADSVKDRFTISRDDSKNTLYLQMNSLKTEDTAVYYCTRHGNFGNSYVSWFAYWGQGTTVTVSS
VL: QAVVTQEPSLTVSPGGTVTLTCRSSTGAVTTSNYANWVQQKPGQAPRGLIGGTNKRAPGVPARFSGSLLGGKAALTLSGAQPEDEAEYFCALWYSNLWVFGGGTKLTVL
B4: huB1G5-CD3-2VHH (CD3 arm) (antibody, V domains shown)
VH: EVQLVESGGGLVQPGGSLKLSCAASGFTFSTYAMNWVRQAPGKGLEWVGRIRSKYNNYATYYADSVKDRFTISRDDSKNTLYLQMNSLKTEDTAVYYCTRHGNFGNSYVSWFAYWGQGTTVTVSS
VL: QAVVTQEPSLTVSPGGTVTLTCRSSTGAVTTSNYANWVQQKPGQAPRGLIGGTNKRAPGVPARFSGSLLGGKAALTLSGAQPEDEAEYFCALWYSNLWVFGGGTKLTVL
modifications: ACRO CDD-C52W4
B5: huB1G5-CD3-2VHH (CD3 arm) (antibody, V domains shown)
VH: EVQLVESGGGLVQPGGSLKLSCAASGFTFSTYAMNWVRQAPGKGLEWVGRIRSKYNNYATYYADSVKDRFTISRDDSKNTLYLQMNSLKTEDTAVYYCTRHGNFGNSYVSWFAYWGQGTTVTVSS
VL: QAVVTQEPSLTVSPGGTVTLTCRSSTGAVTTSNYANWVQQKPGQAPRGLIGGTNKRAPGVPARFSGSLLGGKAALTLSGAQPEDEAEYFCALWYSNLWVFGGGTKLTVL
B6: huB1G5-CD3Fab (CD3 arm) (antibody, V domains shown)
VH: EVQLVESGGGLVQPGGSLKLSCAASGFTFSTYAMNWVRQAPGKGLEWVGRIRSKYNNYATYYADSVKDRFTISRDDSKNTLYLQMNSLKTEDTAVYYCTRHGNFGNSYVSWFAYWGQGTTVTVSS
VL: QAVVTQEPSLTVSPGGTVTLTCRSSTGAVTTSNYANWVQQKPGQAPRGLIGGTNKRAPGVPARFSGSLLGGKAALTLSGAQPEDEAEYFCALWYSNLWVFGGGTKLTVL
modifications: ACRO CDD-C52W4

Key:
human CD3 protein = target: T1, human CD3 protein (human); assay: BLI
T1 chain: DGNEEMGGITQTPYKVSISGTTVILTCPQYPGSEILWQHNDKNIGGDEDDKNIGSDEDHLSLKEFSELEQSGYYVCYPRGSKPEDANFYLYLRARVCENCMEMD

[1] = target: T2, cynomolgus monkey CD3 protein (cynomolgus monkey); assay: BLI
T2 chain: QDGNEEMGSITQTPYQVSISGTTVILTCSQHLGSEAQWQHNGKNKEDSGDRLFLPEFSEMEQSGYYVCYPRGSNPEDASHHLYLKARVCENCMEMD

Row | Binder | Kd (human CD3 protein) | Kd [1]
1 | B1 | 35.7 nM | –
2 | B2 | – | 28.2 nM
3 | B3 | 26.3 nM | –
4 | B4 | – | 6.92 nM
5 | B5 | 22.6 nM | –
6 | B6 | – | 6.59 nM
